Source: patent US6573045, “Methods and kits for discovery of RNA-binding compounds” (Ribotargets, Ltd.)

What was measured:
Rev peptide [1] = target: T1, Rev peptide (Human immunodeficiency virus 1); assay: FRET quenching; ±23; TAMRA-Rev and DABCYL-RRE; 50 mM Tris pH 8, 50 mM KCl, room temp; settings: protein: synthetic; tags: chemically synthesised peptide; N-terminal TAMRA; label: 3'-DABCYL or 5'-FAM; hairpin
Rev peptide [2] = target: T1, Rev peptide; assay: FRET quenching; TAMRA-Rev and DABCYL-TAR; 50 mM Tris pH 8, 50 mM KCl, room temp; settings: protein: synthetic; tags: chemically synthesised peptide; N-terminal TAMRA; label: 3'-DABCYL or 5'-Cy3; hairpin with bulge

Binder | Kd (Rev peptide [1]) [µM] | Kd (Rev peptide [2]) [µM]
CGUGUGGGCGCAGCGUCAAUGACGCUGCGGUACACACG (ssRNA) [RRE RNA] | 0.137 | –
CCCAGAUCUGAGCCUGGGAGCUCUCUGGG (ssRNA) [TAR RNA 29-mer] | – | 11
